Target: T1, ALEXA FLUOR 488-labeled mouse GAC D391K (constitutive dimer mutant) (mouse, UniProt D3Z7P3 72-555, ALEXA FLUOR 488 succinimidyl ester covalently attached to a lysine amino group within the glutaminase domain (exact residue not given))
T1 sequence: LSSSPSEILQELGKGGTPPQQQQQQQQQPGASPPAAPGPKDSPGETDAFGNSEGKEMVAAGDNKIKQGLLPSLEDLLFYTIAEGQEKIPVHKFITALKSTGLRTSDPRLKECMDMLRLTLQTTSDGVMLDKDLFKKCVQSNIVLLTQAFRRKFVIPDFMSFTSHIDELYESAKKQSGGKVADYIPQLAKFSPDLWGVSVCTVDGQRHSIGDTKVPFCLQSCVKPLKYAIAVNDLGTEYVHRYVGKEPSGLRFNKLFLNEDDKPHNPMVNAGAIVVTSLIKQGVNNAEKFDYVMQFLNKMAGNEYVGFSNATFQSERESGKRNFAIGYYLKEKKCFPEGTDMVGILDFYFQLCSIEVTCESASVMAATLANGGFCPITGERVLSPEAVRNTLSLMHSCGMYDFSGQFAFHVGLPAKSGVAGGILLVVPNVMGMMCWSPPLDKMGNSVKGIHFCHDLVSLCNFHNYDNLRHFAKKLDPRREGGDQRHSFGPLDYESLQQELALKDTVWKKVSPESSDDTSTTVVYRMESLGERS
Experiment: FRET: 5 nM 488-D391K-GAC titrated with QSY 9-D391K-GAC, fit to a simple ligand binding equation; monomer-monomer association to a dimer
Source text: FIGS. 10A-B illustrate measuring of the monomer-monomer binding affinity. […] In FIG. 10B, FRET values from FIG. 10A were plotted in a sigma plot and fit to non-linear regression simple ligand binding equation (line).

Kd: 2.5 nM
B1: QSY 9-labeled mouse GAC D391K (constitutive dimer mutant) (enzyme)
chain: LSSSPSEILQELGKGGTPPQQQQQQQQQPGASPPAAPGPKDSPGETDAFGNSEGKEMVAAGDNKIKQGLLPSLEDLLFYTIAEGQEKIPVHKFITALKSTGLRTSDPRLKECMDMLRLTLQTTSDGVMLDKDLFKKCVQSNIVLLTQAFRRKFVIPDFMSFTSHIDELYESAKKQSGGKVADYIPQLAKFSPDLWGVSVCTVDGQRHSIGDTKVPFCLQSCVKPLKYAIAVNDLGTEYVHRYVGKEPSGLRFNKLFLNEDDKPHNPMVNAGAIVVTSLIKQGVNNAEKFDYVMQFLNKMAGNEYVGFSNATFQSERESGKRNFAIGYYLKEKKCFPEGTDMVGILDFYFQLCSIEVTCESASVMAATLANGGFCPITGERVLSPEAVRNTLSLMHSCGMYDFSGQFAFHVGLPAKSGVAGGILLVVPNVMGMMCWSPPLDKMGNSVKGIHFCHDLVSLCNFHNYDNLRHFAKKLDPRREGGDQRHSFGPLDYESLQQELALKDTVWKKVSPESSDDTSTTVVYRMESLGERS
modifications: QSY 9 succinimidyl ester covalently attached to a lysine amino group (exact residue not given)
notes: also called QSY 9-D391K-GAC; QSY 9-GAC (D391K) dimer mutant

Source: patent US20160002619A1 (CORNELL UNIVERSITY, published 2016)
